The chains are these.
B1: FliF (S. enterica serovar typhimurium), subunit of the MS-ring whose C-terminus (FliFC) lies in the C-ring (natural protein)
chain: MSATASTATQPKPLEWLNRLRANPRIPLIVAGSAAVAIVVAMVLWAKTPDYRTLFSNLSDQDGGAIVAQLTQMNIPYRFANGSGAIEVPADKVHELRLRLAQQGLPKGGAVGFELLDQEKFGISQFSEQVNYQRALEGELARTIETLGPVKSARVHLAMPKPSLFVREQKSPSASVTVTLEPGRALDEGQISAVVHLVSSAVAGLPPGNVTLVDQSGHLLTQSNTSGRDLNDAQLKFANDVESRIQRRIEAILSPIVGNGNVHAQVTAQLDFANKEQTEEHYSPNGDASKATLRSRQLNISEQVGAGYPGGVPGALSNQPAPPNEAPIATPPTNQQNAQNTPQTSTSTNSNSAGPRSTQRNETSNYEVDRTIRHTKMNVGDIERLSVAVVVNYKTLADGKPLPLTADQMKQIEDLTREAMGFSDKRGDTLNVVNSPFSAVDNTGGELPFWQQQSFIDQLLAAGRWLLVLVVAWILWRKAVRPQLTRRVEEAKAAQEQAQVRQETEEAVEVRLSKDEQLQQRRANQRLGAEVMSQRIREMSDNDPRVVALVIRQWMSNDHE
notes: FliF, S. enterica serovar typhimurium, expressed from the fliF gene on plasmid pKLR3; residues 50-428 modelled in the MS-ring and 514-560 (FliFC) in the C-ring; no tag is told; also called MS-ring subunit; source: E. coli BL21-Gold, coexpressed from plasmid pKLR3; MSC-ring particles partially purified by differential membrane extraction
B2: FliM (S. enterica serovar typhimurium), C-ring switch subunit (natural protein, UniProt P26418 1-334, looked up)
chain: MGDSILSQAEIDALLNGDSDTKDEPTPGIASDSDIRPYDPNTQRRVVRERLQALEIINERFARQFRMGLFNLLRRSPDITVGAIRIQPYHEFARNLPVPTNLNLIHLKPLRGTGLVVFSPSLVFIAVDNLFGGDGRFPTKVEGREFTHTEQRVINRMLKLALEGYSDAWKAINPLEVEYVRSEMQVKFTNITTSPNDIVVNTPFHVEIGNLTGEFNICLPFSMIEPLRELLVNPPLENSRHEDQNWRDNLVRQVQHSELELVANFADIPLRLSQILKLKPGDVLPIEKPDRIIAHVDGVPVLTSQYGTVNGQYALRVEHLINPILNSLNEEQPK
notes: FliM, S. enterica serovar typhimurium, expressed from the fliM gene on plasmid pKLR3; FliML1 31-50, FliMmid 51-230, FliML2 231-256 and FliMC 257-330 described in the C-ring; no tag is told; also called FliML1; FliMmid; source: E. coli BL21-Gold, coexpressed from plasmid pKLR3; MSC-ring particles partially purified by differential membrane extraction

Data set [1] concerns the molecule itself. Briefly: cryo-EM structure; wild-type MSC-ring particles (CCW pose); MS-ring or C-ring removed by particle subtraction; C-ring 34-mer at 4.0 Å (33-, 35-, 36-mer classes too), MS-ring 33-mer at 3.4 Å.
The target of data set [2] is B1. Nature of the data set: cryo-EM structure; MSC-ring particles with FliG ΔPAA (CW pose); C34 symmetry applied, symmetry expansion and local refinement of three staves; 4.6 Å. The conditions noted are these: both partners purified.
Data set [3] deals with the molecule itself. Described as above.
The target of data set [4] is B2. Briefly: cryo-EM structure; wild-type MSC-ring particles (CCW pose); MS-ring or C-ring removed by particle subtraction; C-ring 34-mer at 4.0 Å (33-, 35-, 36-mer classes too), MS-ring 33-mer at 3.4 Å. The conditions noted are these: both partners purified.
For data set [5], the target named is B1. The description is as above. The conditions noted are these: both partners purified.

“And” between values parts separate entries of the source, which are not always exact repeats. Equal values may be shown once.

On to B1, for which, in data set [1], the “stoichiometry N” value stood at 33.

B2: in data set [1], the “stoichiometry N” value is 34.

B3: FliG ΔPAA (S. enterica serovar typhimurium), extreme CW-biased mutant (natural protein)
chain: MSNLSGTDKSVILLMTIGEDRAAEVFKHLSTREVQALSTAMANVRQISNKQLTDVLSEFEQEAEQFAALNINANEYLRSVLVKALGEERASSLLEDILETRDTTSGIETLNFMEPQSAADLIRDEHPQIIATILVHLKRSQAADILALFDERLRHDVMLRIATFGGVQLAELTEVLNGLLDGQNLKRSKMGGVRTAAEIINLMKTQQEEAVITAVREFDGELAQKIIDEMFLFENLVDVDDRSIQRLLQEVDSESLLIALKGAEPPLREKFLRNMSQRAADILRDDLANRGPVRLSQVENEQKAILLIVRRLAETGEMVIGSGEDTYV
notes: FliG, S. enterica serovar typhimurium, with the Pro-Ala-Ala (PAA) motif FliG 169-171 deleted; also called switch_(ΔPAA); CW-locked; source: switch particles containing the FliG ΔPAA mutation; expression and purification as told for the FliFGMN subunits (E. coli BL21-Gold, differential membrane extraction)
As to B3, the binding result in data set [2] and in data set [3] was “binds” throughout.

B4: FliN (S. enterica serovar typhimurium), C-ring switch subunit (natural protein, UniProt P26419 1-137, looked up)
chain: MSDMNNPSDENTGALDDLWADALNEQKATTTKSAADAVFQQLGGGDVSGAMQDIDLIMDIPVKLTVELGRTRMTIKELLRLTQGSVVALDGLAGEPLDILINGYLIAQGEVVVVADKYGVRITDIITPSERMRRLSR
notes: FliN, S. enterica serovar typhimurium, expressed from the fliN gene on plasmid pKLR3; residues 45/59/63-137 of the three non-equivalent copies modelled in the C-ring; no tag is told; also called FliNC; FliN1; source: E. coli BL21-Gold, coexpressed from plasmid pKLR3; MSC-ring particles partially purified by differential membrane extraction
On to B4, for which the binding result in data set [3] is given as “binds”. In addition, in data set [4], the “stoichiometry N” value turned out to be 3 FliN per FliM.

B5: FliG (S. enterica serovar typhimurium), wild type, C-ring switch subunit (natural protein, UniProt P0A1J9 1-331, looked up)
chain: MSNLSGTDKSVILLMTIGEDRAAEVFKHLSTREVQALSTAMANVRQISNKQLTDVLSEFEQEAEQFAALNINANEYLRSVLVKALGEERASSLLEDILETRDTTSGIETLNFMEPQSAADLIRDEHPQIIATILVHLKRSQAADILALFDERLRHDVMLRIATFGGVQPAALAELTEVLNGLLDGQNLKRSKMGGVRTAAEIINLMKTQQEEAVITAVREFDGELAQKIIDEMFLFENLVDVDDRSIQRLLQEVDSESLLIALKGAEPPLREKFLRNMSQRAADILRDDLANRGPVRLSQVENEQKAILLIVRRLAETGEMVIGSGEDTYV
notes: FliG, S. enterica serovar typhimurium, expressed from the fliG gene on plasmid pKLR3; residues 1-331 modelled in the C-ring; no tag is told; also called FliGD1; FliGD2; source: E. coli BL21-Gold, coexpressed from plasmid pKLR3; MSC-ring particles partially purified by differential membrane extraction
As to B5, in data set [5], the binding result is listed as “binds”. Besides, the “stoichiometry N” value in data set [1] was 34 and 33 and 35 and 36.

One may read the stoichiometry N as the number of molecules, sites or subunits per partner or assembly.

Source of the values: article PMC11087270, “CryoEM structures reveal how the bacterial flagellum rotates and switches direction” (Nature Microbiology, 2024).
